Source: patent US20190322747A1 (ZHEJIANG TERUISI PHARMACEUTICAL, published 2019)

Legend:
Test in all cases: ELISA, antigen coated at 5 µg/mL, anti-HA detection, absorbance at 405 nm
[1] = target: T1, CTLA-4 (human) antigen protein, coated (human, UniProt P16410 36-161, limits assumed)
T1 sequence (looked up): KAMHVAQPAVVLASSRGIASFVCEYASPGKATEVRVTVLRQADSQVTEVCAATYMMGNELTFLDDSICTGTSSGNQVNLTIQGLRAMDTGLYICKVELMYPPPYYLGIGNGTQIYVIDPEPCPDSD
Protocol: (§1) (2) The antigen proteins PD-1 (human), PD-1 (monkey), PD-1 (mice), ICOS(human), CTLA-4 (human), CD28 (human), IgG1 (human) were coated overnight at 4° C. with 0.5 μg per well (5 μg/mL, 100 μL), and IgG1 was coated as a control.
(§2) (3) The plates were washed by PBST (×5) next day, and 200 μL 1% BSA was added to block in RT for 2 hours;

[2] = target: T2, PD-1 (mice) antigen protein, coated (mouse, UniProt Q02242 25-167, limits assumed)
T2 construct: also called mouse PD-1
T2 sequence (looked up): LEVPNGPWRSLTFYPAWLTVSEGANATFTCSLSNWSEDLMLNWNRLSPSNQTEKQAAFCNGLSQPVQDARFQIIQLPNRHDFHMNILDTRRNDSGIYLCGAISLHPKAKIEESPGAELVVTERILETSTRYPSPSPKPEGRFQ
Protocol: as §1, §2

[3] = target: CD28 (human) antigen protein, coated (human, UniProt P10747 19-152)
Sequence of CD28 (human) antigen protein, coated (P10747 19-152 limits assumed): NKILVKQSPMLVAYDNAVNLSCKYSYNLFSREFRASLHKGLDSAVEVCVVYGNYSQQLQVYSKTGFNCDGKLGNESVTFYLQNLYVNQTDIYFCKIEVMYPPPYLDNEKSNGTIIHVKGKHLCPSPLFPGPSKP
Protocol: as §1, §2

[4] = target: T3, ICOS (human) antigen protein, coated (human, UniProt Q9Y6W8 21-140, limits assumed)
T3 sequence (looked up): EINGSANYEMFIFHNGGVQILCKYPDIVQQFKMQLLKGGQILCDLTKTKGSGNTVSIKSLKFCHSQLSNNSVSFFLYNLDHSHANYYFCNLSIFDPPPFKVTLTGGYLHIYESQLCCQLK
Protocol: as §1, §2

Measured: binding result

B1: humanized PD-1 nanobody (amino acid sequence SEQ ID NO.: 14) (VHH)
VHH: QVQLQESGGGLVQPGGSLRLSCAASGSTYLRFSMGWFRQVPGKGLEGVAAIGGDGRTSYADSVKGRFTISKDNSKNTLYLDMNSLRAEDTAVYYCAAAVLLDGSFSLLAPLVPYKYDYWGQGTLVTVSS
modifications: biotinylated (Example 9, sites not stated)
notes: also called Nanobody after humanization; humanized nanobody; not shown: HA and His tags from the pMECS vector
no binding (tested: 10 µg/mL): all assays above
